Experimental data taken from publication PMC3807213 (Journal of molecular biology, 2012).

B1: EcoP15I modification (Mod) subunit (enzyme, UniProt P12364 1-644, looked up)
chain: MKKETIFSEVETANSKQLAVLKANFPQCFDKNGAFIQEKLLEIIRASEVELSKESYSLNWLGKSYARLLANLPPKTLLAEDKTHNQQEENKNSQHLLIKGDNLEVLKHMVNAYAEKVKMIYIDPPYNTGKDGFVYNDDRKFTPEQLSELAGIDLDEAKRILEFTTKGSSSHSAWLTFIYPRLYIARELMREDGTIFISIDHNEFSQLKLVCDEIFGEQNHVGDLVWKNATDNNPSNIAVEHEYIIVYTKNKEQLISEWKSNISDVKNLLVNIGEEFASKYTGNELQEKYTQWFREHRSELWPLDRYKYIDKDGIYTGSQSVHNPGKEGYRYDIIHPKTKKPCKQPLMGYRFPLDTMDRLLSEEKIIFGDDENKIIELKVYAKDYKQKLSSVIHLDGRVATNELKELFPEMTQPFTNAKTIKLVEDLISFACDGEGIVLDFFAGSGTTAHTVFNLNNKNKTSYQFITVQLDEPTKDKSDAMKHGYNTIFDLTKERLIRASKKNRDQGFKVYQLMPDFRAKDESELTLSNHTFFDDVVLTPEQYDTLLTTWCLYDGSLLTTPIEDVDLGGYKAHLCDGRLYLIAPNFTSEALKALLQKVDSDKDFAPNKVVFYGSNFESAKQMELNEALKSYANKKSIELDLVVRN

Assays:
AUC = biological target: the molecule itself; assay: AUC
[1] = biological target: B1; assay: AUC + other: dynamic light scattering

With B1 the “stoichiometry N” value (AUC) was 2.

B2: EcoP15I restriction (Res) subunit (enzyme, UniProt Q5ZND2 1-970, looked up)
chain: MSKGFTLEKNLPHQKAGVDAVMNVFVSATPHLTDNVAVRLLANPELKLSEQQYYNNIKNVQAFNGIAHSKDNHNAKSNIIDVSMETGTGKTYTYIKTIFDLNKSFGINKFIIIVPTLSIKAGTVNFLKSDALKEHFRDDYKRELRTYVVESQKNAGKNTKSYMPQAIHDFVEASNFNKKYIHVLVINSGMINSKSLTDTYDTGLLDNQFNTPVDALRAVKPFIIIDEPHRFPTGKKTWENIEKFNAQYIIRYGATFSEGYKNLVYRLTAVDAFNDDLVKGIDAYIEDIVGDGNANLKFVKSDGKEATFELNENNNKKSFKLAKGESLSKTHSAIHDLTLDALNKSTAVLSNGIELKIGSSINPYSYDQTLADNMMRKAVKEHFKLEKELLTQRPRIKPLTLFFIDDIEGYRDGNDISGSLKTKFEEYVLAEANELLKTEQDAFYKNYLEKTVTNISSVHGGYFSKDNSDKDDKIEQEINEILHDKELLLSLDNPRRFIFSKWTLREGWDNPNVFQICKLRSSGSTTSKLQEVGRGLRLPVNEYMCRVKDRNFTLKYYVDFTEKDFVDSLVKEVNESSFKERVPSKFTQELKEQIMAQYPELSSRALMNELFNDEIIDDNDNFKDSDAYSRLKSKYPAAFPIGVKPGKIKKATDGKRRTKMRVGKFSELKELWDLINQKAVIEYKINSESEFLSIFKSFMLEETERFTKSGVHTRIDKIYIHNDMAMSKSIVSDDDDFAKLNTMSYREFLDNLSQTIFVKHGTLHKVFCDIKDTINITEYLNIQTIRKIKSGFSKYLLNNSFNKFSLGYNLISGSIHPTKFTNADGNPLGEVLSSDLGVLQDNAKAPLDTYLFEEVFYDSELERRNITDREIQSVVVFSKIPKNSIKIPVAGGYTYSPDFAYVVKTAEGDYLNFIIETKNVDSKDSLRLEEKRKIEHAQALFNQISQSVKVEFRTQFANDDIYQLIKSALP
In the case of B2, the “stoichiometry N” value [1] is reported as 1 Res per Mod (2:2).
